The results in this text go back to patent US20030143210A1 (Biogen, published 2003).

This assay has as its target T1, lymphotoxin-β (human, UniProt Q06643 4-244, N-linked oligosaccharide (about 3 kD lost on N-glycanase treatment)).
T1 construct: Type II membrane protein; In the reimmunoprecipitation tests the protein had been eluted from SDS-PAGE gel slices; also called LT-β; LT-B
T1 sequence: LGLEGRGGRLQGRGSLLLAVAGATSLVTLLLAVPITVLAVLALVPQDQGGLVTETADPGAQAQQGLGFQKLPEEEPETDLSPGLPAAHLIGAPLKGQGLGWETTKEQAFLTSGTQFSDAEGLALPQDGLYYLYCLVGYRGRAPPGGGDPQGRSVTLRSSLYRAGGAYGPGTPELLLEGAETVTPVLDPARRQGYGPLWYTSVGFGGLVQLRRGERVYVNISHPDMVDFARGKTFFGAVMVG
The assay is described as follows: co-immunoprecipitation, then reimmunoprecipitation of separated bands from 35S-Met labeled II-23.D7 cells. On the procedure: Reimmunoprecipitation of SDS-PAGE-separated antigens was carried out by excising labeled bands from gels, rehydrating them for 10 minutes in TBS, 0.2% SDS, and then dicing the gel slices into small pieces. The proteins were eluted by incubation in 1 ml TBS, 0.2% SDS for 8 hours at room temperature, with rotation. After elution the gel pieces were removed by centrifugation, and NP-40 was added to the supernatant to a final concentration of 2%. The eluted proteins were then immunoprecipitated as above, and reanalyzed by SDS-PAGE.

B1: lymphotoxin-α (ligand, human, UniProt P01374 35-205, looked up)
chain: LPGVGLTPSAAQTARQHPKMHLAHSTLKPAAHLIGDPSKQNSLLWRANTDRAFLQDGFSLSNNSLLVPTSGIYFVYSQVVFSGKAYSPKATSSPLYLAHEVQLFSSQYPFHVPLLSSQKMVYPGLQEPWLHSMYHGAAFQLTQGDQLSTHTDGIPHLVLSPSTVFFGAFAL
modifications: N-linked oligosaccharide
notes: mature; also called LT-α; LT
As for B1, the binding result was “binds”.
